Test results reported in the RNAGym collection of RNA variant scans (doi:10.7554/elife.80360).

B1: CPEB3 Ribozyme (parent)
chain: GGGGGCCACAGCAGAAGCGUUCACGUCGCGGCCCCUGUCAGAUUCUGGUGAAUCUGCGAAUUCUGCUGU

Variants of: B1
Experiment: self-cleavage, relative activity (ratio to wild type); higher = more cleavage; co-transcriptional

First: GGGGGCCACAUCAGAACCGUUCACGUCGCGGCCCCUGUCAGAUUCUGGUGAAUCUGCGAAUUCUGCUGU [G11U G17C]
Second: GGGGGCCACAUCAGAAACGUUCACGUCGCGGCCCCUGUCAGAUUCUGGUGAAUCUGCGAAUUCUGCUGU [G11U G17A]
The self-cleavage of the first is lower: 0.129 for the first, 0.141 for the second.

First: GGGGGCCACAUCAGAAUCGUUCACGUCGCGGCCCCUGUCAGAUUCUGGUGAAUCUGCGAAUUCUGCUGU [G11U G17U]
Second: GGGGGCCACAUCAUAAGCGUUCACGUCGCGGCCCCUGUCAGAUUCUGGUGAAUCUGCGAAUUCUGCUGU [G11U G14U]
The self-cleavage of the first is higher: 0.148 for the first, 0.144 for the second.

First: GGGGGCCACAUCACAAGCGUUCACGUCGCGGCCCCUGUCAGAUUCUGGUGAAUCUGCGAAUUCUGCUGU [G11U G14C]
Second: GGGGGCCACAUCAGAAGCGUUCACAUCGCGGCCCCUGUCAGAUUCUGGUGAAUCUGCGAAUUCUGCUGU [G11U G25A]
The self-cleavage of the first is higher: 0.161 for the first, 0.141 for the second.

First: GGGGGCCACAUCAGAAGCGUUCACUUCGCGGCCCCUGUCAGAUUCUGGUGAAUCUGCGAAUUCUGCUGU [G11U G25U]
Second: GGGGGCCACAUCAGAAGCGUUCACGUCGCGGCCCCUGUAAGAUUCUGGUGAAUCUGCGAAUUCUGCUGU [G11U C39A]
The self-cleavage of the first is lower: 0.136 for the first, 0.36 for the second.

Compared with GGGGGCCACAUCAGAAGCGUUCACGUCGCGGCCCCUGUGAGAUUCUGGUGAAUCUGCGAAUUCUGCUGU [G11U C39G], GGGGGCCACAUCAGAAGCGUUCACGUCGCGGCCCCUGUUAGAUUCUGGUGAAUCUGCGAAUUCUGCUGU [G11U C39U] is lower in self-cleavage: 0.536 for the first, 0.527 for the second.

Compared with GGGGGCCACAUCAGAAGCGUUCACGUCGCGGUCCCUGUCAGAUUCUGGUGAAUCUGCGAAUUCUGCUGU [G11U C32U], GGGGGCCACAUCAGAAGCGUUCACGUCGCGGGCCCUGUCAGAUUCUGGUGAAUCUGCGAAUUCUGCUGU [G11U C32G] is lower in self-cleavage: 0.854 for the first, 0.295 for the second.

First: GGGGGCCACAUCAGAAGCGUUCACGUCGCGCCCCCUGUCAGAUUCUGGUGAAUCUGCGAAUUCUGCUGU [G11U G31C]
Second: GGGGGCCACAUCAGAAGCGUUCACGUCGCGUCCCCUGUCAGAUUCUGGUGAAUCUGCGAAUUCUGCUGU [G11U G31U]
The self-cleavage of the first is lower: 0.138 for the first, 0.499 for the second.

Compared with GGGGGCCACAUCAGAAGCGUUCACGUCGCGGCCUCUGUCAGAUUCUGGUGAAUCUGCGAAUUCUGCUGU [G11U C34U], GGGGGCCACAUCAGAAGCGUUCACGUCGCGGCCGCUGUCAGAUUCUGGUGAAUCUGCGAAUUCUGCUGU [G11U C34G] is lower in self-cleavage: 0.915 for the first, 0.635 for the second.

Going from GGGGGCCACAUCAGAAGCGUUCACGUCGCGGCCCCUGUCAGAUUUUGGUGAAUCUGCGAAUUCUGCUGU [G11U C45U] to GGGGGCCACAUCAGAAGCGUUCACGUCGCGGCCCCUGUCAGAUUAUGGUGAAUCUGCGAAUUCUGCUGU [G11U C45A], the self-cleavage falls from 0.893 to 0.732.

Going from GGGGGCCACAUCAGAAGCGUUCACGUCGCGGCCCCUCUCAGAUUCUGGUGAAUCUGCGAAUUCUGCUGU [G11U G37C] to GGGGGCCACAUCAGAAGCGUUCACGUCGCGGCCCCUAUCAGAUUCUGGUGAAUCUGCGAAUUCUGCUGU [G11U G37A], the self-cleavage falls from 0.213 to 0.145.

Going from GGGGGCCACAUCAGAAGCGUUCACGUCGCGGCACCUGUCAGAUUCUGGUGAAUCUGCGAAUUCUGCUGU [G11U C33A] to GGGGGCCACAUCAGAAGCGUUCACGUCGCGGCGCCUGUCAGAUUCUGGUGAAUCUGCGAAUUCUGCUGU [G11U C33G], the self-cleavage falls from 0.765 to 0.619.

First: GGGGGCCACAUCAGAAGCGUUCACGUCGCGGCCCCUGUCAGAUUCUGGUGAAUCUGCGAAUUGUGCUGU [G11U C63G]
Second: GGGGGCCACAUCAGAAGCGUUCACGUCGCGGCCCCUGUCAGAUUCUGGUGAAUCUGCGAAUUUUGCUGU [G11U C63U]
The self-cleavage of the first is lower: 0.231 for the first, 0.498 for the second.

Going from GGGGGCCACAUCAGAAGCGUUCACGUCGCGGCCCCUGUCAGAUUCUGGUGAAUCUGCGAAUUCUGAUGU [G11U C66A] to GGGGGCCACAUCAGAAGCGUUCACGUCGCGGCCCCUGUCAGAUUCUGGUGAAUCUGCGAAUUCUGUUGU [G11U C66U], the self-cleavage rises from 0.918 to 0.955.

Compared with GGGGGCCACAUCAGAAGCGUUCACGUCGCGGCCCCUGUCAGAUUCUGGUGAAUCUGCGAAUUCUGGUGU [G11U C66G], GGGGGCCACAUCAGAAGCGUUCACGUCGCGGCCCCUGUCAGAUUCUGGUGAAUCUGUGAAUUCUGCUGU [G11U C57U] is lower in self-cleavage: 0.949 for the first, 0.215 for the second.

First: GGGGGCCACAUCAGAAGCGUUCACGUCGCGGCCCCUGUCAGAUUCUGGUGAAUCUGAGAAUUCUGCUGU [G11U C57A]
Second: GGGGGCCACAUCAGAAGCGUUCACGUCGCGGCCCCUGUCAGAUUCUGGUGAAUCUGGGAAUUCUGCUGU [G11U C57G]
The self-cleavage of the first is higher: 0.31 for the first, 0.204 for the second.

First: GGGGGCCACAUCAGAAGCGUUCACGUCGCCGCCCCUGUCAGAUUCUGGUGAAUCUGCGAAUUCUGCUGU [G11U G30C]
Second: GGGGGCCACAUCAGAAGCGUUCACGUCGCAGCCCCUGUCAGAUUCUGGUGAAUCUGCGAAUUCUGCUGU [G11U G30A]
The self-cleavage of the first is lower: 0.455 for the first, 0.589 for the second.

Going from GGGGGCCACAUCAGAAGCGUUCACGUCCCGGCCCCUGUCAGAUUCUGGUGAAUCUGCGAAUUCUGCUGU [G11U G28C] to GGGGGCCACAUCAGAAGCGUUCACGUCUCGGCCCCUGUCAGAUUCUGGUGAAUCUGCGAAUUCUGCUGU [G11U G28U], the self-cleavage rises from 0.116 to 0.192.

Compared with GGGGGCCACAUCAGAAGCAUUCACGUCGCGGCCCCUGUCAGAUUCUGGUGAAUCUGCGAAUUCUGCUGU [G11U G19A], GGGGGCCACAUCAGAAGCUUUCACGUCGCGGCCCCUGUCAGAUUCUGGUGAAUCUGCGAAUUCUGCUGU [G11U G19U] is higher in self-cleavage: 0.115 for the first, 0.118 for the second.

Compared with GGGGGCCACAUCAGAAGCCUUCACGUCGCGGCCCCUGUCAGAUUCUGGUGAAUCUGCGAAUUCUGCUGU [G11U G19C], GGGGGCCACAUCAGAAGCGUUCACGUCGCGGCCCGUGUCAGAUUCUGGUGAAUCUGCGAAUUCUGCUGU [G11U C35G] is higher in self-cleavage: 0.135 for the first, 0.341 for the second.

In the case of GGGGGCCACAUCAGAAGCGUUCACGUCGCGGCCCUUGUCAGAUUCUGGUGAAUCUGCGAAUUCUGCUGU [G11U C35U], the self-cleavage is reported as 0.815.
